According to the supplement of paper PMC12764529:
± gives the half width of the 95% confidence interval.

Test: folding stability dG unfold (combined trypsin and chymotrypsin); higher = more stable
Method in brief: (§1)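 Digests were run with trypsin and chymotrypsin at 11 concentrations in threefold dilutions, plus a no-protease condition, on designed mini-proteins in a PA-tagged cDNA display construct. The mini-proteins were under 80 residues, had no cysteine, and were kept only when AlphaFold2 dimer inter-PAE was above 15. After sequencing, Bayesian fitting of the counts gave K50, from which unfolding free energy was derived against a sequence-predicted unfolded-state K50 and a shared folded-state K50, per protease or combined.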

Row | Sequence | folding stability dG unfold [kcal/mol]
1 | SAGGSAGGSAGGMYYAIITNKNGKKKIIKFKSLEEMEEAAKKNNIKIEIIPKEELEKLLSAGGSAGGSAGGS [r10_66_TrROS_Hall] | 3.65 ± 0.069
2 | SAMIVVTLTINPITGKPILIFDPGVGVYAIDPETGEPHEATVDGDTLTLNFGNRPILLTPEAVIPPEELSAG [r14_208_TrMRF] | 1.21 ± 0.067
3 | SAGGSAGGSSVEYTFLSKNPEEAKKKFEEKIKEIEEKGEGKIEKAEFTIVSPDNPEYLKLISSSAGGSAGGS [r12_551_JUSTAS] | 0.259 ± 0.13
4 | SAGGSAGGSTVEEELLEKAAAAHPPGTTLTVDVVIVDPNNPVPIGTRTVTITVNADGSYTVVDSAGGSAGGS [r20_151_JUSTAS] | 2.46 ± 0.09
5 | SAGGGSATLVGIFPEKGYLVVLTITTDGDDFSIGELKVTFEPLDDDSVKATFYTPSGQKHDAIGLPVASAGG [r13_515_TrMRF] | 1.46 ± 0.059
6 | SAGGSAGGSKEKYIKIVVEVNGEKKVIVVKAKTIEELEELAKKLNLEVEIEKREDGYLVIRLKSAGGSAGGS [r12_810_TrROS_Hall] | 3.29 ± 0.058
7 | SAGGLKPGDWVIIMTIEFPFPFPDDDGKPQEWRIKITIWVPVEYDPPDGKLEIDNIFINIEIVPPDQISAGG [r13_312_TrROS] | 4.44 ± 0.18
8 | SEEEIVEEPPPETRTLTLELVDPETGELVATITVSPDGTVTLTVRTPDGEEKTITVPEGMSLEEALAAALSA [r9_346_TrROS_Hall] | 4.18 ± 0.45
9 | SAGSSLRLELDLEVTLYAPVVSVRPDGSLSLVPGSTRPIPVRLRVTFELTLDPDNPLNVSINVDIEADFSAG [r14_274_TrMRF] | > 6
10 | MTPTFTVTELPPDLLRVEYTDPVTGKRATFTLPVSPVGDGVRLSAEVDAEGLPEEVAAAIRDAALAALAAAS [r1_403_JUSTAS] | 2.06 ± 0.042
11 | SAGGSAGGSAGSIVTIPIAGLSPEEAEALIKEAIAAGEDKPIILVDEDGTPTVVPASELKSAGGSAGGSAGG [r11_541_JUSTAS] | -0.242 ± 0.079
12 | SAGGSAGGSAGGDNVLILVKLPKGYRVYSINDPEVLKAVTLKELKDELEKKTGYPVEVLPSAGGSAGGSAGG [r7_259_TrMRF] | 1.57 ± 0.22
13 | SAGGSAGGSAGKIKVEKDKKTNEYRVTIELFDKNGKPVKKIEITVKKEDLPKIKELLKKLSAGGSAGGSAGG [r11_77_TrROS_Hall] | 3.4 ± 0.076
14 | SAGDNNKKPKYVYIPITINVPLPPGQTHEEAVDEVRLIMEELFPPGFKISEVKVHPEYNTVTVWIQIRSAGG [r19_81_TrROS] | 2.22 ± 0.18
15 | SKGKKVLVIPATLPEAEEIAKALGLPPSLFPSSKKLVDALKEAFPENVVVVVAPAKPVTEEELKALAEGKSA [r9_74_TrMRF] | 0.678 ± 0.081
16 | SAGMKKLPSEEERKKAEELAKKGELVIIIRLKNGEKLVIVVKSEEELKELLKKLPLEIEEIYVFKVKKKSAG [r5_481_TrROS_Hall] | 2.07 ± 0.16
17 | SAGGSADPIRTISGPVPLEEIEANIKKLLKENPNLDAAVFYIPEIGSKITIYFKNGKIVKIEIDLSSAGGSA [r15_166_TrMRF] | 4.59 ± 0.16
18 | SGFTVEVEVEYYPETGVLEVTVTTDGSSEQLIRDVADFIKEAGLDFVIESVEVEESGEVTTITLKLYVPPSA [r9_164_TrMRF] | 3.78 ± 0.21
19 | SNKIDKRIVSVTFYESLPNGSVKVNNLVFISTSDGKVRLVNAGEITIPLGDKTLSINIGEASSNVKLGKISA [r9_1113_TrMRF] | 1.37 ± 0.041
20 | SAGGTLTLLVEVDGLLVRVTAEVRLVYDPETDELTLEVRVRVEVRPLPAPPPPLVVVRDADGRLRLLSAGGS [r8_46_TrROS_Hall] | 2.22 ± 0.08
21 | SAGGSAGGSDRYLAVVFVRRADDPTPEVRTFTGIRTLADVERAVADALPADVAEVRIVVFPVRSAGGSAGGS [r20_29_TrMRF] | 1.67 ± 0.12

Test: folding stability dG unfold from trypsin proteolysis; higher = more stable
Method in brief: as §1

Row | Sequence | folding stability dG unfold [kcal/mol]
22 | SAGGSAGGSAKKKVEIKIEIEEVTNKDGKKYIKIKIEVKVSEEVKKELADALKKAGFKVEPSAGGSAGGSAG [r3_157_TrROS_Hall] | 1.54 ± 0.091
23 | SAGGMLTLEEIKKAKPGEKLEIEVDGKIYLVEIKKNENGELTLTVKKVDKETGEIVEEKTISLEELLSAGGS [r16_763_TrROS_Hall] | 2.91 ± 0.11
24 | SAGGSAGGSAGMTYRVRIENADGEVVTIEISADELREKGLTLEELLPPNARIVEVEEVEPSAGGSAGGSAGG [r11_829_TrROS_Hall] | 3.8 ± 0.16
25 | SAGGSAGGSAGSWELSYRFPGVQIEVTYSPEWGFITEIKVQPLPPPPPPSPEDAKEMKEKSAGGSAGGSAGG [r11_320_TrROS] | 0.799 ± 0.083
26 | SAGGMKLEFEAEITVPLPVPTPEGGLEFVPITEPIRIEAEHPEELEIALKEAELETIERALKELGIESAGGS [r16_339_TrMRF] | -0.594 ± 0.19
27 | GMMPEVKEYEVVVEVSLSDPSFASMTPEELAERAVAEVAAKPDFDPVEVEILSVKELPDGTYVVKVRITVRS [r1_484_JUSTAS] | 4.48 ± 0.2
28 | SAGGSAGGSAGMEYHLVVVRPPNGEELVLLTDDDPELARRAARELFPGAEVRVEPVVLPESAGGSAGGSAGG [r11_850_TrMRF] | 0.111 ± 0.034
29 | SAGGSAGGSADGNKPPEIKINLEVERHPNGMVEITATLHWPGGKEFPVRIMYNPDKIFIEISAGGSAGGSAG [r3_259_TrROS] | 2.95 ± 0.31
30 | SAGGGMESRTLTLPKEEIEKVKEEIKKASNLDIKVTTKKLPNGEYELTITFSNPEDVEKFEKKLGIESAGGS [r16_172_JUSTAS] | 1.99 ± 0.16
31 | SAGGSAGGSMKKLKITFPPGMTEEELKKKIEELAKKLNLEVVKIKSIEYDKENKEVTITVEIKSAGGSAGGS [r12_131_TrROS_Hall] | 4.2 ± 0.17
